Results reported in US20250277020A1 (Boehringer Ingelheim, published 2025).

T1: Full-length human CTGF (human, UniProt P29279 27-349)
T1 construct: Corresponds to NCBI NP_001892.1 with the signal peptide omitted; purchased from R&D Systems; also called hCTGF full length; full length CTGF
T1 sequence: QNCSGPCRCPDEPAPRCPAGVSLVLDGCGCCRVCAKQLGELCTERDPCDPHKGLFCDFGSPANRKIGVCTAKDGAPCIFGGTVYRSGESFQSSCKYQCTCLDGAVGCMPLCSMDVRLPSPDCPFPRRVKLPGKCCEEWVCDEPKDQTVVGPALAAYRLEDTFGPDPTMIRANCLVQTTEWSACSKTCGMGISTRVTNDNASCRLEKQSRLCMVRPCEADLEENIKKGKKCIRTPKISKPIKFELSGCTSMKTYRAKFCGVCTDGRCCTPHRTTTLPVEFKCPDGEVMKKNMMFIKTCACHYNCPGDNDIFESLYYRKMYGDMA


Molecular target: T1, Full-length human CTGF
Assay: SPR, full length CTGF

Kd	Binder
0.25 nM	A80 (antibody, human IgG1, kappa, L234A L235A) light: VVMTQTPLSLPVSLGDQASISCRSSQSIVHYNGKTYLEWYLQKPGQSPQLLIYKVSNRFSGVPDRFSGSGSGTDFTLKISRVEAEDLGVYYCFQGSHFPLTFGQGTKLEIKRTVAAPSVFIFPPSDEQLKSGTASVVCLLNNFYPREAKVQWKVDNALQSGNSQESVTEQDSKDSTYSLSSTLTLSKADYEKHKVYACEVTHQGLSSPVTKSFNRGEC heavy: not shown
0.29 nM	A81 (antibody, human IgG1, kappa, L234A L235A, V domains shown) VH: EVQLVESGGGLVQPGGSLRLSCAASGFTFSDYYMAWVRQAPGKGLEWVANINYEGSRTDLLESLKSRFTISRDNAKNSVYLQMNSLRAEDTAVYYCARDTSRGSYFDVWGAGTTVTVSS VL: VVMTQTPLSLPVSLGDQASISCRSSQSIVHYNEKTYLEWYLQKPGQSPQLLIYKVSNRFSGVPDRFSGSGSGTDFTLKISRVEAEDLGVYYCFQGSHFPLTFGQGTKLEIKR
0.16 nM	A79 (antibody, human IgG1, kappa, L234A L235A, V domains shown) VH: EVQLVESGGGLVQPGGSLRLSCAASGFTFSDYYMAWVRQAPGKGLEWVANINYDGSRTDLLESLKSRFTISRDNAKNSVYLQMNSLRAEDTAVYYCARDTSRGSYFDVWGAGTTVTVSS VL: VVMTQTPLSLPVSLGDQASISCRSSQSIVHYNGKTYLEWYLQKPGQSPQLLIYKVSNRFSGVPDRFSGSGSGTDFTLKISRVEAEDLGVYYCFQGSHFPLTFGQGTKLEIKR
0.28 nM	A71 (antibody, human IgG1, kappa, L234A L235A, V domains shown) VH: EVQLVESGGGLVQPGGSLRLSCAASGFTFSDYYMAWVRQAPGKGLEWVANINYDGSRTDLLESLKSRFTISRDNAKNSVYLQMNSLRAEDTAVYYCARDTSRGSYFDVWGAGTTVTVSS VL: VVMTQTPLSLPVSLGDQASISCRSSQSIVHYNTNTYLEWYLQKPGQSPQLLIYKVSNRFSGVPDRFSGSGSGTDFTLKISRVEAEDLGVYYCFQGSHFPLTFGQGTKLEIKR
0.27 nM	A65 (antibody, human IgG1, kappa, L234A L235A, V domains shown) VH: EVQLVESGGGLVQPGGSLRLSCAASGFTFSDYYMAWVRQAPGKGLEWVANINYEGSRTDLLESLKSRFTISRDNAKNSVYLQMNSLRAEDTAVYYCARDTSRGSYFDVWGAGTTVTVSS VL: VVMTQTPLSLPVSLGDQASISCRSSQSIVHYNTNTYLEWYLQKPGQSPQLLIYKVSNRFSGVPDRFSGSGSGTDFTLKISRVEAEDLGVYYCFQGSHFPLTFGQGTKLEIKR
0.2 nM	A74 (antibody, human IgG1, kappa, L234A L235A, V domains shown) VH: EVQLVESGGGLVQPGGSLRLSCAASGFTFSDYYMAWVRQAPGKGLEWVANINYYGSRTDLLESLKSRFTISRDNAKNSVYLQMNSLRAEDTAVYYCARDTSRGSYFDVWGAGTTVTVSS VL: VVMTQTPLSLPVSLGDQASISCRSSQSIVHYNGKTYLEWYLQKPGQSPQLLIYKVSNRFSGVPDRFSGSGSGTDFTLKISRVEAEDLGVYYCFQGSHFPLTFGQGTKLEIKR
0.17 nM	A75 (antibody, human IgG1, kappa, L234A L235A, V domains shown) VH: EVQLVESGGGLVQPGGSLRLSCAASGFTFSDYYMAWVRQAPGKGLEWVANINYEGSRTDLLASLKSRFTISRDNAKNSVYLQMNSLRAEDTAVYYCARDTSRGSYFDVWGAGTTVTVSS VL: VVMTQTPLSLPVSLGDQASISCRSSQSIVHYNGKTYLEWYLQKPGQSPQLLIYKVSNRFSGVPDRFSGSGSGTDFTLKISRVEAEDLGVYYCFQGSHFPLTFGQGTKLEIKR
0.23 nM	A78 (antibody, human IgG1, kappa, L234A L235A, V domains shown) VH: EVQLVESGGGLVQPGGSLRLSCAASGFTFSDYYMAWVRQAPGKGLEWVANINYEGSRTDLLDSLKSRFTISRDNAKNSVYLQMNSLRAEDTAVYYCARDTSRGSYFDVWGAGTTVTVSS VL: VVMTQTPLSLPVSLGDQASISCRSSQSIVHYNGKTYLEWYLQKPGQSPQLLIYKVSNRFSGVPDRFSGSGSGTDFTLKISRVEAEDLGVYYCFQGSHFPLTFGQGTKLEIKR
0.27 nM	A70 (antibody, human IgG1, kappa, L234A L235A, V domains shown) VH: EVQLVESGGGLVQPGGSLRLSCAASGFTFSDYYMAWVRQAPGKGLEWVANINYEGSRTDLLDSLKSRFTISRDNAKNSVYLQMNSLRAEDTAVYYCARDTSRGSYFDVWGAGTTVTVSS VL: VVMTQTPLSLPVSLGDQASISCRSSQSIVHYNTNTYLEWYLQKPGQSPQLLIYKVSNRFSGVPDRFSGSGSGTDFTLKISRVEAEDLGVYYCFQGSHFPLTFGQGTKLEIKR

The remaining lines, values behind:

Binder	Kd
A64 (antibody, human IgG1, kappa, L234A L235A) light: VVMTQTPLSLPVSLGDQASISCRSSQSIVHYNANTYLEWYLQKPGQSPQLLIYKVSNRFSGVPDRFSGSGSGTDFTLKISRVEAEDLGVYYCFQGSHFPLTFGQGTKLEIKRTVAAPSVFIFPPSDEQLKSGTASVVCLLNNFYPREAKVQWKVDNALQSGNSQESVTEQDSKDSTYSLSSTLTLSKADYEKHKVYACEVTHQGLSSPVTKSFNRGEC heavy: not shown	0.32 nM
A83 (antibody, human IgG1, kappa, L234A L235A, V domains shown) VH: EVQLVESGGGLVQPGGSLRLSCAASGFTFSDYYMAWVRQAPGKGLEWVANINYEGSRTDLLASLKSRFTISRDNAKNSVYLQMNSLRAEDTAVYYCARDTSRGSYFDVWGAGTTVTVSS VL: VVMTQTPLSLPVSLGDQASISCRSSQSIVHYNEKTYLEWYLQKPGQSPQLLIYKVSNRFSGVPDRFSGSGSGTDFTLKISRVEAEDLGVYYCFQGSHFPLTFGQGTKLEIKR	0.26 nM
A67 (antibody, human IgG1, kappa, L234A L235A, V domains shown) VH: EVQLVESGGGLVQPGGSLRLSCAASGFTFSDYYMAWVRQAPGKGLEWVANINYEGSRTDLLASLKSRFTISRDNAKNSVYLQMNSLRAEDTAVYYCARDTSRGSYFDVWGAGTTVTVSS VL: VVMTQTPLSLPVSLGDQASISCRSSQSIVHYNTNTYLEWYLQKPGQSPQLLIYKVSNRFSGVPDRFSGSGSGTDFTLKISRVEAEDLGVYYCFQGSHFPLTFGQGTKLEIKR	0.24 nM
A82 (antibody, human IgG1, kappa, L234A L235A, V domains shown) VH: EVQLVESGGGLVQPGGSLRLSCAASGFTFSDYYMAWVRQAPGKGLEWVANINYYGSRTDLLESLKSRFTISRDNAKNSVYLQMNSLRAEDTAVYYCARDTSRGSYFDVWGAGTTVTVSS VL: VVMTQTPLSLPVSLGDQASISCRSSQSIVHYNEKTYLEWYLQKPGQSPQLLIYKVSNRFSGVPDRFSGSGSGTDFTLKISRVEAEDLGVYYCFQGSHFPLTFGQGTKLEIKR	0.36 nM
A73 (antibody, human IgG1, kappa, L234A L235A, V domains shown) VH: EVQLVESGGGLVQPGGSLRLSCAASGFTFSDYYMAWVRQAPGKGLEWVANINYEGSRTDLLESLKSRFTISRDNAKNSVYLQMNSLRAEDTAVYYCARDTSRGSYFDVWGAGTTVTVSS VL: VVMTQTPLSLPVSLGDQASISCRSSQSIVHYNGKTYLEWYLQKPGQSPQLLIYKVSNRFSGVPDRFSGSGSGTDFTLKISRVEAEDLGVYYCFQGSHFPLTFGQGTKLEIKR	0.58 nM
A76 (antibody, human IgG1, kappa, L234A L235A, V domains shown) VH: EVQLVESGGGLVQPGGSLRLSCAASGFTFSDYYMAWVRQAPGKGLEWVANINYYGSRTDLLASLKSRFTISRDNAKNSVYLQMNSLRAEDTAVYYCARDTSRGSYFDVWGAGTTVTVSS VL: VVMTQTPLSLPVSLGDQASISCRSSQSIVHYNGKTYLEWYLQKPGQSPQLLIYKVSNRFSGVPDRFSGSGSGTDFTLKISRVEAEDLGVYYCFQGSHFPLTFGQGTKLEIKR	0.18 nM
A66 (antibody, human IgG1, kappa, L234A L235A, V domains shown) VH: EVQLVESGGGLVQPGGSLRLSCAASGFTFSDYYMAWVRQAPGKGLEWVANINYYGSRTDLLESLKSRFTISRDNAKNSVYLQMNSLRAEDTAVYYCARDTSRGSYFDVWGAGTTVTVSS VL: VVMTQTPLSLPVSLGDQASISCRSSQSIVHYNTNTYLEWYLQKPGQSPQLLIYKVSNRFSGVPDRFSGSGSGTDFTLKISRVEAEDLGVYYCFQGSHFPLTFGQGTKLEIKR	0.25 nM
A72 (antibody, human IgG1, kappa, L234A L235A) light: VVMTQTPLSLPVSLGDQASISCRSSQSIVHYNTNTYLEWYLQKPGQSPQLLIYKVSNRFSGVPDRFSGSGSGTDFTLKISRVEAEDLGVYYCFQGSHFPLTFGQGTKLEIKRTVAAPSVFIFPPSDEQLKSGTASVVCLLNNFYPREAKVQWKVDNALQSGNSQESVTEQDSKDSTYSLSSTLTLSKADYEKHKVYACEVTHQGLSSPVTKSFNRGEC heavy: not shown	0.27 nM
A84 (antibody, human IgG1, kappa, L234A L235A, V domains shown) VH: EVQLVESGGGLVQPGGSLRLSCAASGFTFSDYYMAWVRQAPGKGLEWVANINYYGSRTDLLASLKSRFTISRDNAKNSVYLQMNSLRAEDTAVYYCARDTSRGSYFDVWGAGTTVTVSS VL: VVMTQTPLSLPVSLGDQASISCRSSQSIVHYNEKTYLEWYLQKPGQSPQLLIYKVSNRFSGVPDRFSGSGSGTDFTLKISRVEAEDLGVYYCFQGSHFPLTFGQGTKLEIKR	0.29 nM
A69 (antibody, human IgG1, kappa, L234A L235A) light: VVMTQTPLSLPVSLGDQASISCRSSQSIVHYNTNTYLEWYLQKPGQSPQLLIYKVSNRFSGVPDRFSGSGSGTDFTLKISRVEAEDLGVYYCFQGSHFPLTFGQGTKLEIKRTVAAPSVFIFPPSDEQLKSGTASVVCLLNNFYPREAKVQWKVDNALQSGNSQESVTEQDSKDSTYSLSSTLTLSKADYEKHKVYACEVTHQGLSSPVTKSFNRGEC heavy: not shown	0.28 nM
A77 (antibody, human IgG1, kappa, L234A L235A) light: VVMTQTPLSLPVSLGDQASISCRSSQSIVHYNGKTYLEWYLQKPGQSPQLLIYKVSNRFSGVPDRFSGSGSGTDFTLKISRVEAEDLGVYYCFQGSHFPLTFGQGTKLEIKRTVAAPSVFIFPPSDEQLKSGTASVVCLLNNFYPREAKVQWKVDNALQSGNSQESVTEQDSKDSTYSLSSTLTLSKADYEKHKVYACEVTHQGLSSPVTKSFNRGEC heavy: not shown	0.23 nM
A68 (antibody, human IgG1, kappa, L234A L235A, V domains shown) VH: EVQLVESGGGLVQPGGSLRLSCAASGFTFSDYYMAWVRQAPGKGLEWVANINYYGSRTDLLASLKSRFTISRDNAKNSVYLQMNSLRAEDTAVYYCARDTSRGSYFDVWGAGTTVTVSS VL: VVMTQTPLSLPVSLGDQASISCRSSQSIVHYNTNTYLEWYLQKPGQSPQLLIYKVSNRFSGVPDRFSGSGSGTDFTLKISRVEAEDLGVYYCFQGSHFPLTFGQGTKLEIKR	0.15 nM
